Assay results as given in PMC3657613 (Nature chemical biology, 2012).

How the values were obtained:
MC4R Δ1–24 = MC4R Δ1–24 (Homo sapiens, UniProt P32245); test: MC4R activity, cAMP-responsive luciferase reporter in transfected HEK293 cells; assay type: cell-based; details: for stimulation of MC4R Δ1–24 by peptide (efficacy): compared with constitutive activity of wild-type MC4R, normalized to membrane expression, triplicate, Fig. 2a
wild-type MC4R = test: as above; assay type: cell-based, human; details: constitutive activity; Fig. 1f

Sequence of MC4R Δ1–24 (P32245 25-332, stated change not applied): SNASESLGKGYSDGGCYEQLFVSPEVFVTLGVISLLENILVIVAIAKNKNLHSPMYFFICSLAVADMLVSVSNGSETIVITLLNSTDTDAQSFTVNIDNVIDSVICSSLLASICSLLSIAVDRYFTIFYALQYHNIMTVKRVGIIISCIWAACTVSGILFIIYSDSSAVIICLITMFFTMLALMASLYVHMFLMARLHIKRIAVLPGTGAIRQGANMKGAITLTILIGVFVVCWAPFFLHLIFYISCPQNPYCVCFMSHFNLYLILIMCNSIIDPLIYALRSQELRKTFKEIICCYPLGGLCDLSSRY

Substance	stimulation of MC4R Δ1–24 by peptide (efficacy) (MC4R Δ1–24)	also measured
MC4R 14–26: smaller overlapping peptide spanning the MC4R N-terminal domain, residues 14–26 (HLWNRSSYRLHSN)	not significantly different from the constitutive activity of wild-type MC4R	
MC4R 14–19 R18L: MC4R 14–19 hexapeptide with R18L substitution (HLWNLS)	markedly disrupted MC4R 14–19 efficacy	
MC4R 14–19 S19A: MC4R 14–19 hexapeptide with S19A substitution (HLWNRA)	not significantly different from the constitutive activity of wild-type MC4R	
MC4R 14–19 W16A: MC4R 14–19 hexapeptide with W16A substitution (HLANRS)	markedly disrupted MC4R 14–19 efficacy	
MC4R 14–19 L15A: MC4R 14–19 hexapeptide with L15A substitution (HAWNRS)	not significantly different from the constitutive activity of wild-type MC4R	
MC4R 14–19 H14A: MC4R 14–19 hexapeptide with H14A substitution (ALWNRS)	markedly disrupted MC4R 14–19 efficacy	
MC4R 14–19 N17A: MC4R 14–19 hexapeptide with N17A substitution (HLWARS)	not significantly different from the constitutive activity of wild-type MC4R	
MC4R 2–19: smaller overlapping peptide spanning the MC4R N-terminal domain, residues 2–19 (VNSTHRGMHTSLHLWNRS)	not significantly different from the constitutive activity of wild-type MC4R	
HLWNRS [MC4R 14–19]	not significantly different from the constitutive activity of wild-type MC4R	
MC4R 8–20: smaller overlapping peptide spanning the MC4R N-terminal domain, residues 8–20 (GMHTSLHLWNRSS)	not significantly different from the constitutive activity of wild-type MC4R	
Agouti-related protein (SSRRCVRLHESCLGQQVPCCDPCATCYCRFFNAFCYCRKLGTAMNPCSRT; UniProt O00253 83-132, looked up) [AgRP]		AgRP inverse agonism of wild-type MC4R (wild-type MC4R): inverse agonism of the wild-type receptor; AgRP antagonism of MC4R 2–26 activation of MC4R Δ1–24 (MC4R Δ1–24; Fig. 1f): inhibits the activation of MC4R Δ1–24 by MC4R 2–26 with similar potency as its inverse agonism of the wild-type receptor; effect on residual N terminal–independent constitutive activity of MC4R Δ1–24 (MC4R Δ1–24; Supplementary Fig. 3a): inhibits the residual N terminal–independent constitutive activity; inhibition of αMSH-induced receptor activation (MC4R Δ1–24; receptor with or without the N-terminal domain, Supplementary Fig. 3e): inhibits αMSH-induced receptor activation independent of the absence or presence of the N-terminal domain
MC4R 8–26: smaller overlapping peptide spanning the MC4R N-terminal domain, residues 8–26 (GMHTSLHLWNRSSYRLHSN)	not significantly different from the constitutive activity of wild-type MC4R	
